Reference: patent publication EP4545559A2 (INSTITUTO BUTANTAN, dated 2025)
Like-named read-outs stand apart in the source and are kept apart here.

Assays:
[1] = molecular target: T1, RBD Delta (L452R/T478K) (SARS-CoV-2, UniProt P0DTC2 319-541); test: SPR kinetics; *** did not dissociate until 36000sec
T1 construct: domain: RBD

[2] = molecular target: T2, RBD Gamma (K417T/E484K/N501Y) (SARS-CoV-2, UniProt P0DTC2 319-541); test: as above
T2 construct: domain: RBD

[3] = molecular target: T3, RBD Omicron (G339D, S371L, S373P, S375F, K417N, N440K, G446S, S477N, T478K, E484A, Q493R, G496S, Q49 (SARS-CoV-2, UniProt P0DTC2 319-541)); test: SPR, antigen on CM5 sensor
T3 construct: range 319-541

[4] = molecular target: T1, RBD Delta (L452R/T478K); test: SPR, antigen on CM5 sensor
[5] = molecular target: T2, RBD Gamma (K417T/E484K/N501Y); test: SPR, antigen on CM5 sensor
[6] = molecular target: T3, RBD Omicron (G339D, S371L, S373P, …); test: SPR kinetics; ** dissociation in 36000sec
[7] = molecular target: T3, RBD Omicron (G339D, S371L, S373P, …); test: SPR, antigen on CM5 sensor; remark: listed apart in the source
[8] = molecular target: T1, RBD Delta (L452R/T478K); test: SPR, antigen on CM5 sensor; remark: listed apart in the source
[9] = molecular target: T2, RBD Gamma (K417T/E484K/N501Y); test: SPR, antigen on CM5 sensor; remark: listed apart in the source
[10] = molecular target: T1, RBD Delta (L452R/T478K); test: SPR kinetics; *** did not dissociate until 36000sec; remark: listed apart in the source
[11] = molecular target: T2, RBD Gamma (K417T/E484K/N501Y); test: as above; remark: listed apart in the source
[12] = molecular target: T3, RBD Omicron (G339D, S371L, S373P, …); test: SPR kinetics; * dissociation in 360sec
[13] = molecular target: T3, RBD Omicron (G339D, S371L, S373P, …); test: SPR, antigen on CM5 sensor; remark: listed apart in the source
[14] = molecular target: T1, RBD Delta (L452R/T478K); test: SPR, antigen on CM5 sensor; remark: listed apart in the source
[15] = molecular target: T2, RBD Gamma (K417T/E484K/N501Y); test: SPR, antigen on CM5 sensor; remark: listed apart in the source
[16] = molecular target: T3, RBD Omicron (G339D, S371L, S373P, …); test: SPR kinetics; *** did not dissociate until 36000sec
[17] = molecular target: T1, RBD Delta (L452R/T478K); test: as above; remark: listed apart in the source
[18] = molecular target: T2, RBD Gamma (K417T/E484K/N501Y); test: as above; remark: listed apart in the source
[19] = molecular target: T3, RBD Omicron (G339D, S371L, S373P, …); test: SPR, antigen on CM5 sensor; remark: listed apart in the source
[20] = molecular target: T1, RBD Delta (L452R/T478K); test: SPR, antigen on CM5 sensor; remark: listed apart in the source
[21] = molecular target: T2, RBD Gamma (K417T/E484K/N501Y); test: SPR, antigen on CM5 sensor; remark: listed apart in the source
[22] = molecular target: T3, RBD Omicron (G339D, S371L, S373P, …); test: SPR kinetics; * dissociation in 360sec; remark: listed apart in the source
[23] = molecular target: T1, RBD Delta (L452R/T478K); test: SPR kinetics; *** did not dissociate until 36000sec; remark: listed apart in the source
[24] = molecular target: T2, RBD Gamma (K417T/E484K/N501Y); test: as above; remark: listed apart in the source
[25] = molecular target: T3, RBD Omicron (G339D, S371L, S373P, …); test: as above; remark: listed apart in the source
[26] = molecular target: T2, RBD Gamma (K417T/E484K/N501Y); test: as above; remark: listed apart in the source
[27] = molecular target: T1, RBD Delta (L452R/T478K); test: SPR kinetics; ** dissociation in 36000sec
[28] = molecular target: T3, RBD Omicron (G339D, S371L, S373P, …); test: SPR, antigen on CM5 sensor; remark: listed apart in the source
[29] = molecular target: T1, RBD Delta (L452R/T478K); test: SPR, antigen on CM5 sensor; remark: listed apart in the source
[30] = molecular target: T2, RBD Gamma (K417T/E484K/N501Y); test: SPR, antigen on CM5 sensor; remark: listed apart in the source
[31] = molecular target: T3, RBD Omicron (G339D, S371L, S373P, …); test: SPR kinetics; * dissociation in 360sec; remark: listed apart in the source
[32] = molecular target: T1, RBD Delta (L452R/T478K); test: SPR kinetics; * dissociation in 360sec
[33] = molecular target: T2, RBD Gamma (K417T/E484K/N501Y); test: SPR kinetics; *** did not dissociate until 36000sec; remark: listed apart in the source
[34] = molecular target: T3, RBD Omicron (G339D, S371L, S373P, …); test: SPR, antigen on CM5 sensor; remark: listed apart in the source
[35] = molecular target: T1, RBD Delta (L452R/T478K); test: SPR, antigen on CM5 sensor; remark: listed apart in the source
[36] = molecular target: T2, RBD Gamma (K417T/E484K/N501Y); test: SPR, antigen on CM5 sensor; remark: listed apart in the source

B1: Monoclonal antibody S.9.4.F4 (antibody, V domains shown)
VH: QVQLVESGGGVVQPGRSLRLSCAASGFTFSHYGMHWVRQAPGKGLEWVAVILYDGSNEYYADSVKGRFTISRDNSKNTLYLQMNSLRAEDTAVYYCAKGAGTYCSGGNCYVAYFDYWGQGTLVTVSS
VL: AIRMTQSPSSLSASVGDRVTITCQASQDISNYLNWYQQKPGKAPKLLIYDASNLETGVPSRFSGSGSGTDFTVTISSLQPEDFATYYCQQYDNLPLTFGGGTKVEIK
notes: also called mAb S.9.4.F4
[1]
  Kd: ~1.22 pM
[2]
  Kd: ~0.0187 nM
[3]
  RU: 74 RU
[4]
  RU: 373 RU
[5]
  RU: 160 RU
[6]
  Kd: 0.231 nM

B2: Monoclonal antibody S.9.4.C7 (antibody, V domains shown)
VH: QVQLVESGGGVVQPGRSLRLSCAASGFTFRNYAMHWVRQAPGKGLEWVTVISYDGSDKYYADSVKGRFTISRDNSKNTLYLQMNSLRAEDTAVYYCAKDPVGGYCSGGRCYFHSHYFDYWGQGTLVTVSS
VL: NFMLTQPHSVSESPGKTVTISCTRSSGSIASYYVQWYQQRPGSSPTTVISEDNQRPSGVPDRFSGSIDSSSNSASLTISGLKTEDEADYYCQSYDSNNHVIFGGGTKLTVL
notes: also called mAb S.9.4.C7
[7]
  RU: 160 RU
[8]
  RU: 1150 RU
[9]
  RU: 481 RU
[10]
  Kd: ~0.14 nM
[11]
  Kd: ~0.205 nM
[12]
  Kd: 1.31 nM

B3: Monoclonal antibody S.10.1.C6 (antibody, V domains shown)
VH: QLQLQESGPGLVKPSETLSLTCTVSGGSISSSSYYWGWIRQPPGKGLEWIGSFYYSGGSYYNPSLKSRVTISVDTSKNQFSLKLSSVTAADTAVYYCARDEHGDYAVGYWGQGTLVTVSS
VL: QSVLTQPPSVSGAPGQRVTISCTGSSSNIGAGYDVHWYQQLPGTAPKLLIYGNNNRPSGVPDRFSGSKSGTSASLAITGLQAEDEADYYCQSYDSSLSALYVFGTGTKVTVL
notes: also called S.10.1.C6 mAb
[13]
  RU: 66 RU
[14]
  RU: 343 RU
[15]
  RU: 134 RU
[16]
  Kd: ~0.804 nM
[17]
  Kd: ~8.12 pM
[18]
  Kd: ~0.235 nM

B4: Monoclonal antibody S.11.1.C8 (antibody, V domains shown)
VH: QVQLVESGGGVVQPGRSLRLSCAASGFTFSTFSMHWVRQAPGKGLEWVAVILYDGTYKSYADSVKGRFTISRDNSGNTLFLQMNSLRAEDSAVYYCARDFGEMTTYFDFWGQGTLVTVSS
VL: DIQMTQPPSSLSASVGDRVTITCRASQSIGNNLNWYQQKPGKAPKLLIYVASSLQSGVPSRFSGSGSGTDFTLTISSLQPEDFATYFCQQSYSTPPWTFGQGTKVEIK
notes: also called mAb S.11.1.C8
[19]
  RU: 166 RU
[20]
  RU: 799 RU
[21]
  RU: 360 RU
[22]
  Kd: 0.615 nM
[23]
  Kd: ~0.0131 nM
[24]
  Kd: ~0.103 nM

B5: Monoclonal antibody S.9.2.D7 (antibody, V domains shown)
VH: EVQLLESGGGLIQTGGSLRLSCAASGFTFSSYAMSWVRQAPGKGLEWVSVISDSGGSTYYADSVKGRLTISRDNSKNTLYVQMNSLRAEDTAVYYCAKGKGGIAAAGPAFLFDYWGQGTLVTVSS
VL: DIQMTQSPSLLSASAGDRVTISCRMSQGISSYLAWYQQKPGKAPELLISSASTLQSGVPSRFSGSGSGTDFTLTISYLQSEDFATYYCQQYYSFPTTFGGGTKVEIK
notes: also called mAb S.9.2.D7
[25]
  Kd: ~6.29 pM
[26]
  Kd: ~0.237 pM
[27]
  Kd: 1.84 pM
[28]
  RU: 0 RU
[29]
  RU: 0 RU
[30]
  RU: 50 RU

B6: Monoclonal antibody S.11.1.D12 (antibody, V domains shown)
VH: EVQLLESGGGLVQPGGSLRLSCAASGFPFITYPMSWVRQAPGKGLEWVSDIGGIGGSTSYADSVKGRFTISRDNYQNTVYLQMHSLRAEDTAVYYCAKWKSRVDSSYKGGGWFDSWGPGTLVTVSS
VL: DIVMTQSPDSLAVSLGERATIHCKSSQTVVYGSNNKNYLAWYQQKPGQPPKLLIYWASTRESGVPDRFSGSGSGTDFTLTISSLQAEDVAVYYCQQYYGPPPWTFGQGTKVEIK
notes: also called mAb S.11.1.D12
[31]
  Kd: 3.73 nM
[32]
  Kd: 0.636 nM
[33]
  Kd: ~11 nM
[34]
  RU: 145 RU
[35]
  RU: 771 RU
[36]
  RU: 44 RU
